These results are taken from article PMC6422423, “Constitutively active BRS3 is a genuinely orphan GPCR in placental mammals” (PLoS Biology, 2019).

Holding throughout (conditions): one partner purified
Assay [1] deals with T1, human bombesin receptor subtype-3 (human, UniProt P32247 1-399).
T1 construct: bombesin receptor subtype-3 of human (Homo sapiens); also called hBRS3; human BRS3; source: HEK293, transiently transfected, on cells
T1 sequence (looked up): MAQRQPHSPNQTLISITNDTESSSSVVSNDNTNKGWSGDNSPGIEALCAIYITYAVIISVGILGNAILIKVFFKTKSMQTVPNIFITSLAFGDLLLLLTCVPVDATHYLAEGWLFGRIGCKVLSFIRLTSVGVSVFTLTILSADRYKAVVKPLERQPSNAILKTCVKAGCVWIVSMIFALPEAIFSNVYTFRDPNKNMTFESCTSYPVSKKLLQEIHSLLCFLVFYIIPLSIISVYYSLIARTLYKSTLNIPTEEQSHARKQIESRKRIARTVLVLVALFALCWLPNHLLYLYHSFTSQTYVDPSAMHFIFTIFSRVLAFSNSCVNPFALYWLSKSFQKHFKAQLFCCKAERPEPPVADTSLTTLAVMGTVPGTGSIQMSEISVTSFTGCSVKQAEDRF
Description: radioligand binding; displacement of 50 pM [125I]-Tyr42-GRP by unlabeled peptide on disaggregated transfected HEK293 cells; 1 h at 21°C; 24.5 mM HEPES pH 7.4, 98 mM NaCl; bound tracer separated by centrifugation.

Assay [2] concerns the target T2, mouse bombesin receptor subtype-3 (mouse, UniProt O54798 1-399).
T2 construct: bombesin receptor subtype-3 of mouse (Mus musculus); also called mBRS3; mouse BRS3; source: HEK293, transiently transfected, on cells
T2 sequence (looked up): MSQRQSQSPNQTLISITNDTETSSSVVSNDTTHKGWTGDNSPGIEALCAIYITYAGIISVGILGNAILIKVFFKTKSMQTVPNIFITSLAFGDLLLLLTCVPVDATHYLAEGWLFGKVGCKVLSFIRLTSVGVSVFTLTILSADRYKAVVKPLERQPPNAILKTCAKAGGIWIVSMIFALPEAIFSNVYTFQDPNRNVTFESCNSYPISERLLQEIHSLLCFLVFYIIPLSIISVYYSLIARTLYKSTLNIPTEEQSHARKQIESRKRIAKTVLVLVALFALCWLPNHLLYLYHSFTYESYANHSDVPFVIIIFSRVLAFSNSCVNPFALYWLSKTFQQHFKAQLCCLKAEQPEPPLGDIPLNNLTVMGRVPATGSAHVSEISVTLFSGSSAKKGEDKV
The description is as above.

Assay [3] addresses T1, human bombesin receptor subtype-3. Put plainly: radioligand binding; displacement of 50 pM [125I]-Tyr-NMB by unlabeled peptide on disaggregated transfected HEK293 cells; 1 h at 21°C; 24.5 mM HEPES pH 7.4, 98 mM NaCl; bound tracer separated by centrifugation.
The target of assay [4] is T2, mouse bombesin receptor subtype-3. The assay is described as above.

Where no end group is shown, it is not given here.

B1: gastrin-releasing peptide, unlabeled ligand peptide of the radioligand binding assays (peptide)
peptide: APLQPGGSPALTKIYPRGSHWAVGHLM
modifications: ends and bridges not checked
notes: gastrin-releasing peptide, 27 residues; No C-terminal amide is printed for this peptide; also called GRP; source: synthetic peptide (Anhui Guoping Pharmaceutical)
With B1, the Ki in assay [1] and in assay [2] was > 1000 nM in each case.

B2: neuromedin B, unlabeled ligand peptide of the radioligand binding assays (peptide)
peptide: YKIKVNPRGNLWATGHFM
modifications: ends and bridges not checked
notes: The N-terminal Tyr may have been added for iodination (surmise); No C-terminal amide is printed for this peptide; also called NMB; source: synthetic peptide (Anhui Guoping Pharmaceutical)
On to B2, for which the Ki in assay [3] and in assay [4] was > 1000 nM throughout.
